Reference: paper PMC10666116, “Tunable force transduction through the Escherichia coli cell envelope” (Proceedings of the National Academy of Sciences of the …, 2023)

Biological target: the molecule itself
Assay: cryo-EM structure; single-particle cryo-EM of purified TolQR complex at 7.5 mg/mL in SEC buffer (50 mM Tris/HCl pH 7.5, 300 mM NaCl, 2 mM EDTA, 0.01% LMNG); rigid-body refinement of a published model

B1: TolQ (natural protein, E. coli, UniProt P0ABU9 1-230, looked up)
chain: MTDMNILDLFLKASLLVKLIMLILIGFSIASWAIIIQRTRILNAAAREAEAFEDKFWSGIELSRLYQESQGKRDNLTGSEQIFYSGFKEFVRLHRANSHAPEAVVEGASRAMRISMNRELENLETHIPFLGTVGSISPYIGLFGTVWGIMHAFIALGAVKQATLQMVAPGIAEALIATAIGLFAAIPAVMAYNRLNQRVNKLELNYDNFMEEFTAILHRQAFTVSESNKG
notes: TolQ, E. coli, inner-membrane motor protein of the Tol system; expressed from pCEP13 (pT12-tolQ-tolR); Pentamer in the TolQR complex; also called TolQ pentamer; motor subunit of TolQR
  stoichiometry N: 5
